From publication PMC12442068

Target: recombinant TMPRSS2 (UniProt O15393)
Test: enzyme inhibition kinetics (progress curve method); TMPRSS2 mixed with increasing SB3 (0-10 uM), fluorescent substrate Z-Gly-Gly-Arg-AMC, TBS pH 7.6, 25 °C, 300 s; Camostat mesylate as reference inhibitor

In the case of “recombinant SerpinB3 protein, wild type (from UniProt P29508 1-390) (natural protein)”, the dissociation constant, fold against Camostat is reported as 6 times lower.
